# According to patent US5756684, “Cloning and expression of PUR protein” (Mount Sinai School of Medicine of the City of New York):
# T1: GST-Pur-alpha (Homo sapiens, UniProt Q00577 SEQ:1-322)
# T1 sequence: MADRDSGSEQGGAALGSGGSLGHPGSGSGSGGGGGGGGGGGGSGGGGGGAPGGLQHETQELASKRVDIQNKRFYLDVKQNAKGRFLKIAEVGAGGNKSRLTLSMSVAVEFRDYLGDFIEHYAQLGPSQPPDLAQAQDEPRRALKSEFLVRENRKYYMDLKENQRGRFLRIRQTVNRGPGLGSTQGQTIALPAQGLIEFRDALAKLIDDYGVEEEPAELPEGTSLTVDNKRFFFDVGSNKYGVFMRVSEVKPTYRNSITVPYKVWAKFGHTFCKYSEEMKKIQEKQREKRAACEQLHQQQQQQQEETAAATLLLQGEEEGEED
# Legend:
# GST-Tat = GST-Tat (HIV-1, UniProt P04608 P04608:1-86); experiment: EMSA; Tat stated not to bind the upTAR element itself; details: tags: GST; label: 32P end
# GST-Pur-alpha = target: T1, GST-Pur-alpha; experiment: EMSA; 7.5 pmol; Tat at 1:1 enhances binding nearly 10-fold; details: tags: N-terminal GST; label: 32P end
# Procedure: FIG. 21A. Specificity of binding of Purα to the JCV upTAR element. The different oligonucleotide probes used for the indicated reactions are: JCV+, the purine-rich single strand of the upTAR element; JCV ds, the double-stranded upTAR element, only the pyrimidine-rich strand of which is labeled; JCV−, the pyrimidine-rich strand of the upTAR element.
# 8.1.2. Binding of PURα to the JVC upTAR PUR Element in the Presence or Absence of Tat All gel shifts were performed as described in Section 6.1.2. using ^32P end-labeled 24-mer oligonucleotide probe representing a dimer of the upTAR element. The purine-rich strand of this oligonucleotide is: 5'-[…]-3' SEQ ID NO:51. For both panels A and B, all Tat, Purα and Purα deletion mutant proteins were employed GST fusion proteins prepared by purification on glutathione agarose columns as described for FIG. 20 and eluted with glutathione. In both panels for lanes labeled +, 7.5 pmoles of each indicated protein were used. Specificity of binding of Purα to the JCV upTAR element. The different oligonucleotide probes used for the indicated reactions are: JCV+, the purine-rich single strand of the upTAR element; JCV ds, the double-stranded upTAR element, only the pyrimidine-rich strand of which is labeled; JCV−, the pyrimidine-rich strand of the upTAR element. Effect of Tat upon biding of a series of Purα deletion mutants to the JCV upTAR element. […]
binder,measurement,setting,value
GGAGGCGGAGGCGGAGGCGGAGGC (ssDNA) [JCV+ (upTAR purine-rich strand dimer)],binding result,GST-Tat,no binding
same,binding result,GST-Pur-alpha,binds
